Laboratory results from the supplement of paper PMC9170038.

Tests used:
[1] = tested on: MS2 coat protein; experiment: apparent KD of MS2 coat protein, switch OFF state (with FMN for OFF switches, without FMN for ON switches); designed switch direction (-1 OFF switch, 1 ON switch): 1; higher = weaker reporter binding; details: FMN input: 0 or 200 uM; Eterna round: R93 (includes R88 designs)
How it was run: (§1)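 Designed RNA switches were transcribed on-chip from Illumina sequencing clusters. SNAP-549-labelled MS2 coat protein was titrated onto them in twofold steps from 0.7 or 1.5 nM to 3 µM in 100 mM Tris-HCl pH 7.5, 80 mM KCl, 4 mM MgCl2, either without or with constant ligand. Apparent KD reflects the per-design median of normalised cluster binding-curve fits.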

[2] = tested on: MS2 coat protein; experiment: apparent KD of MS2 coat protein, switch ON state; designed switch direction (-1 OFF switch, 1 ON switch): 1; higher = weaker reporter binding; details: FMN input: 0 or 200 uM; Eterna round: R93 (includes R88 designs)
How it was run: as §1

Sequence | apparent KD of MS2 coat protein [1] | apparent KD of MS2 coat protein [2]
AUAAAGAAAAGGCAGGAUAUGUAAACUAAAACAUGAGGAUCACCCAUGUGGGAAAUAAAAUAAAAACAGAAGGGCCAAAAGAAUA [Designing denovo 17] | 0.0328 µM | 0.0191 µM
AUAAUAUUAAGCAAGGAUAUACUAAAGUAAACAUGAGGAUCACCCAUGUAAAAAAAAAAACUCAUGUAGAAGGUGCAUAAAUAAA [moonwalk 10] | 0.0331 µM | 0.00892 µM
AUUCCAAAUAGUCAGGAUAUCAGAAGUAAGACAUGAGGAUCACCCAUGUACUUAGUAAAAGUAACUGAGAAGGGACAGGGUGUAA [JR_SS002_Sub405] | 0.0161 µM | 0.0174 µM
CAGAGACAUGAGGAUCACCCAUGUAGGAUUAUGGGAGGAUAUACAAAGACGAGAGUCAGAGUAGAAGGCCUAGGAA [salish99-ss1-141] | 0.0576 µM | 0.0211 µM
CGCGAACAUGAGGAUCACCCAUGUGAAAAACACAGAGGAUAUGUCGCAUGCGUGUAAAAGACAGAAGGCUGUCGCG [mod of top voted: #3] | 0.084 µM | 0.0197 µM
CGGAGACAUGAGGAUCACCCAUGUGAGAAGAGGCGAGGAUAUCGAAAGAAAGAAGAGAAACGAGAAGGCGCGAGUA [salish99-SS1-066] | 0.0319 µM | 0.0203 µM
CGGAGACAUGAGGAUCACCCAUGUGAGAAGAGGCGAGGAUAUGGAAAUAAAGAAGAGAAAUGAGAAGGCGCGAGCC [salish99-SS1-082] | 0.0363 µM | 0.0406 µM
CUGGACAUAGUAUAGGAUAUAUGAAUAAUUACAUGAGGAUCACCCAUGUCCAUUUAUAUGGGAACAUAGAAGGGUGGUAGUUAAG [Mat - Same state - Malcolm Mod - D142] | 0.0976 µM | 0.147 µM
GAAAAACAUGAGGAUCACCCAUGUAAAAAUAUGGGAGGAUAUUCAAAGACGAAAGGGAAAGAAGAAGGCCUAAAAG [Garnet 4] | 1.3 µM | 0.0827 µM
GAAAAACAUGAGGAUCACCCAUGUAAAAAUAUGGGAGGAUAUUGAAAGACGAAAGUCAAACAAGAAGGCCUAAAAG [Garnet 2] | 0.119 µM | 0.0222 µM
GAAAAACAUGAGGAUCACCCAUGUAGAAAUAUGGGAGGAUAUACAAAGACGAAAGUCAAAGUAGAAGGCCUGAAAG [77%, Mat - Mod of Eli, 1] | 0.136 µM | 0.0271 µM
GAAAAACAUGAGGAUCACCCAUGUAGAAAUAUGGGAGGAUAUACAAAGACGAAAGUCAAAGUAGAAGGCCUUAAAG [JL S1 M-MoE mod 1 In the Red] | 0.0549 µM | 0.0283 µM
GAAAAACAUGAGGAUCACCCAUGUAGAGAUAUGGGAGGAUAUACGAAGACGAAAGACGAUGUAGAAGGCCUAAAAG [Garnet 59] | 0.234 µM | 0.0804 µM
GAAAAACAUGAGGAUCACCCAUGUGUAAAUAUGGAAGGAUAUACAAAGACGUAAGUCAAAGUAGAAGGUCUAAAAG [Mat - Same State 1 - Eli mod - D17] | 0.0235 µM | 0.0188 µM
GAAAAACAUGAGGAUCACCCAUGUGUAAAUAUGGGAGGAUAUACAAAGACGAAAGUCAAAGUAGAAGGCCUAAAAG [Mat - Same State 1 - Eli mod - D5] | 0.19 µM | 0.0232 µM
GAACCACAUGAGGAUCACCCAUGUCAAAGAAAUCAAGGAUAUGCACAAAAGGAAAUAACUGCAGAAGGUGAACGAA [62%, Redo, 1] | 0.0409 µM | 0.0226 µM
GAACCACAUGAGGAUCACCCAUGUCUAAAUAUGGGAGGAUAUGCACAAAAGGAAAUAACUGCAGAAGGCCUACGAA [62%, Redo, 3] | 0.135 µM | 0.0257 µM
GAAGACAUAGUUCAGGAUAUAGGAAUAGUCACAUGAGGAUCACCCAUGUGCAUUUAUAUGCGCACUUAGAAGGGAGGUAGUUAUA [SameState2 Malc#22] | 0.0264 µM | 0.0322 µM
GAAGACAUAGUUCAGGAUAUAGGAAUAGUCACAUGAGGAUCACCCAUGUGCAUUUAUAUGCGCGCUUAGAAGGGAGGUAGAUAAU [Mat - Same state - Malcolm Mod - D119] | 0.0212 µM | 0.0245 µM

Sequence | apparent KD of MS2 coat protein [1] | apparent KD of MS2 coat protein [2]
GAAGACAUAGUUCAGGAUAUGGUAAUAGUCACAUGAGGAUCACCCAUGUGCAUUUAUAUGCGCGAUCAGAAGGGAGGUAGAUAAG [Mat - Same state - Malcolm Mod - D116] | 0.0183 µM | 0.0186 µM
GAGGACAUAGUAUAGGAUAUAUGAAUAAUUACAUGAGGAUCACCCAUGUCCAUUUAUAUGGGAACAUAGAAGGGUGGUAGUUGUC [Mat - Same state - Malcolm Mod - D130] | 0.2 µM | 0.073 µM
GAUAAACAUGAGGAUCACCCAUGUAGAAAUAUGGGAGGAUAUACGAAGACGAAAGUCAAAGUAGAAGGCCUAAAAG [Mat - Same State 1 - Eli mod - D114] | 0.0526 µM | 0.0239 µM
GAUAUACAUGAGGAUCACCCAUGUUAGGUGGGUCAAGGAUAUUGAUAUAAAUAAAAAACUCGAGAAGGUGAAUAAA [JR_SS001_Sub020] | 0.153 µM | 0.298 µM
GCAAAACAUGAGGAUCACCCAUGUCAACAAAAUCAAGGAUAUGAGCCAGCAAUGCCGGCAUCAGAAGGUGAACCUU [Enqule] | 0.0685 µM | 0.0532 µM
GGAAAACAUGAGGAUCACCCAUGUGAAAACGUGGGAGGAUAUCGAUGGAAACCAUACUGUCGAGAAGGCCCAUGUC [EteRNA is fun!] | 0.0472 µM | 0.0185 µM
GGAGUACAUGAGGAUCACCCAUGUUGGAACAAAGUAGGAUAUGUACAAUAUUAAAUAAAAACAGAAGGACUAAGAA [Gold Rush] | 0.0371 µM | 0.0233 µM
GGCCAACAUGAGGAUCACCCAUGUCGCCAAAAUCGAGGAUAUGGGUGCCAGCUCGGGCAGCCAGAAGGCGACAAAA [Qutiqumais] | 0.224 µM | 0.0551 µM
GGGAAGAAGAGAGAGGAUAUCCAAAGGAAAACAUGAGGAUCACCCAUGUAAAAGGUAGGAAAUUGGGAGAAGGCUCAAAAGAGGG [salish99-ss2-032] | 0.0394 µM | 0.029 µM
GGGACCAGCGUCAAGGAUAUUCAUAUAUAAACAUGAGGAUCACCCAUGUAGGCCAGGAGGCCUUGGGAGAAGGUGAGUUGGCUCG [Xegedibe] | 0.249 µM | 0.0405 µM
GGGAGGAAGAGAGAGGAUAUCCAAAGGAAAACAUGAGGAUCACCCAUGUAAAAGGUAGGAAAUUGGGAGAAGGCUCAAGAGAAAG [salish99-ss2-054] | 0.0516 µM | 0.0298 µM
GGGAGGAAGAGAGAGGAUAUCCAAAGGAAAACAUGAGGAUCACCCAUGUAAAAGGUAGGAAAUUGGGAGAAGGCUCAAGAGAGGG [salish99-ss2-051] | 0.028 µM | 0.0236 µM
GGUACAUCUAGUUAGGAUAUCAGGUGUAAGACAUGAGGAUCACCCAUGUCCUAAGAACAGGUAACUGAGAAGGAACAGGGAGUCC [JR_SS002_Sub416] | 0.133 µM | 0.0646 µM
GUAUAUAUAAGACAGGAUAUCCUAAAGUAAACAUGAGGAUCACCCAUGUAAAGAAAGAAACUCAUGGAGAAGGGUCAAUAUAUAC [Mat - Same State 2 - Tesla mod - D82] | 0.0271 µM | 0.0115 µM
GUGUAUAGAAUCGAGGAUAUCCUGUAAUGCACAUGAGGAUCACCCAUGUAAGAGCGAGAAUAAUGGGAGAAGGCGAGUUAUCGGU [JR_SS002_Sub1710] | 0.0461 µM | 0.0275 µM
UAAAAACAUGAGGAUCACCCAUGUGAGAACAUGGGAGGAUAUACAAAGACGAAAGUCAAAGUAGAAGGCCUAAAAU [Mat - Same State 1 - Mod - D170] | 0.0159 µM | 0.0751 µM
UAAAAACAUGAGGAUCACCCAUGUGAGAACAUGGGAGGAUAUACGAAGACGAAAGUCGAAGUAGAAGGCCUAAAAU [Mat - Same State 1 - Mod - D172] | 0.0393 µM | 0.145 µM
UAUAAACAUGAGGAUCACCCAUGUAGAAAUAUGGGAGGAUAUACAAAGACGAAAGUCAAAGUAGAAGGCCUAAUAA [Mat - Same State 1 - Mod - D156] | 0.0894 µM | 0.0166 µM
UAUAGACAUGAGGAUCACCCAUGUAGAAUUAUGGGAGGAUAUACAAAGACGAGAGUCAGAGUAGAAGGCCUAGGAA [salish99-ss1-152] | 0.0557 µM | 0.024 µM
